The results in this text go back to PMC9253516 (2022).

As usually defined, the Kd is the free concentration of one partner at which half of the binding sites on the other are occupied at equilibrium, for simple one-to-one binding. Read a high Kd as lower affinity.

This assay concerns the target Survivin full length (UniProt O15392 1-142). Put plainly: ITC.

Sequence of Survivin full length (O15392 whole entry): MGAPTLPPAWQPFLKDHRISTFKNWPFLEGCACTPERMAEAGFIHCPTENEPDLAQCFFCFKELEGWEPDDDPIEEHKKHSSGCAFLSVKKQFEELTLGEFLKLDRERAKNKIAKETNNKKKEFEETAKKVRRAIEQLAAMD

With AKER [Sgo1_(AKER) peptide], binding was characterised by a dissociation constant (Kd) of 11.6 µM.
